Assay results reported in patent US20260132218A1 (A AND G PHARMACEUTICAL, published 2026).
Substitutions are numbered along the chain they refer to.

B1: 2A2 (antibody, IgG2a, V domains shown)
VH: EVQLVESGGGLVQPGRSLRLSCAASGFTFDDYAMHWVRQAPGKGLEWVSGISWNGGTLGYADSVKGRFTISRDNAKNSLYLQMNSLRAEDTALYYCAKDTGSYSHWYFDLWGRGTLVTVSS
VL: EIVMTQSPATLSVSPGERATLSCRASQSVRSNLAWYQQKPGQAPRLLIYGASTRATGIPARFSGSGSGTEFTLTISSLHSEDFAVYYCQQYNNWPTFGQGTKVEIK
notes: also called AGRD017-2A2; fully human 2A2 antibody
B2: 2D7 (antibody, IgG1, V domains shown)
VH: B1 VH with G55S, L58M, D62G
VL: not shown
notes: also called AGRD017-2D7; fully human 2D7 antibody
B3: 3G7 (antibody, IgG1, V domains shown)
VH: B1 VH with I51V, L58M, D62G
VL: B1 VL with A60G, T72I, H79Q
notes: also called AGRD017-3G7; fully human 3G7 antibody
B4: 8C1 (antibody, IgG2a, V domains shown)
VH: B1 VH with A23T
VL: B1 VL
notes: also called AGRD017-8C1; fully human 8C1 antibody
B5: 11D7 (antibody, V domains shown)
VH: B1 VH with S52A, T57I
VL: B1 VL with H79Q, Y87C
notes: Hybridoma antibody from TC-mAb mice; also called AGRD017-11D7; fully human 11D7 antibody
B6: 12E3 (antibody, IgG1, V domains shown)
VH: B1 VH with E6G, D62G
VL: B1 VL with F62C, H79Q
notes: also called AGRD017-12E3; fully human 12E3 antibody

How the values were obtained:
[1] = target: T1, human recombinant His-tagged HER2 extracellular domain (human, UniProt P04626 23-652); test: competition EIA on coated HER2, competitor trastuzumab-biotin; given as ED50
T1 construct: extracellular domain; also called HER2-ECD; HER-ECD
Procedure: (§1) Method: 96 well high binding EIA plates were coated with 10 ng of HER2 protein overnight at 4 C. […] After washing, colorimetric substrate 3,3′,5,5′-tetramethylbenzidine (TMB) was added and absorbance at 620 nm was determined after 10 minutes.

HER2 on SKBR3 cells = HER2 on SKBR3 cells (human, UniProt P04626 23-1255); test: cell-based or functional assay
[2] = target: T1, human recombinant His-tagged HER2 …; test: blocking ELISA (competition EIA): HER2 protein coated on the plate, pre-incubated with the antibody, then competitor anti-HER2 TRAST-biotin, streptavidin-HRP; signal as % of h.IgG
Procedure: as §1

Binder	IC50 [1]	Migration assay, at 50 ug/ml (inhibition of migration of SKBR3 cells) (HER2 on SKBR3 cells)	IC50 (read off the curve) [2]	Killing assay at 0.3 ug/ml Ab (2 nM), DM1 (6 nM), 72 hr (HER2 on SKBR3 cells)	Internalization: Fluorescent Units (HER2 on SKBR3 cells)
B1	0.09 µg/mL	38%	–	–	–
B2	–	59%	~0.1 µg/mL	50%	–
B3	0.06 µg/mL	24%	–	–	–
B4	0.1 µg/mL	32%	–	–	–
B5	0.06 µg/mL	32%	–	–	–
B6	0.04 µg/mL	45%	–	–	9000 Fluorescent Units
